This assay addresses Wu-1-RBD-I53-50A (SARS-CoV-2, UniProt P0DTC2 328-531). Kind of assay: BLI. On the technique in general: BLI is a label-free optical method that tracks binding on a fibre tip over time.

B1: LY-CoV555 Fab (Fab, V domains shown)
VH: QVQLVQSGAEVKKPGSSVKVSCKASGGTFSNYAISWVRQAPGQGLEWMGRIIPILGIANYAQKFQGRVTITADKSTSTAYMELSSLRSEDTAVYYCARGYYEARHYYYYYAMDVWGQGTAVTVSS
VL: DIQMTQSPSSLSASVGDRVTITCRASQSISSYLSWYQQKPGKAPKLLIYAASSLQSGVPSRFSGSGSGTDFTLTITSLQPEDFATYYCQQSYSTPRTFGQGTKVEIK
As to B1, binding was characterised by a dissociation constant (Kd) of 26.9 nM. This counts as double-digit nanomolar.

Values taken from PMC11461925 (2024).
